Results: patent US20230002480A1

Assays:
Assay in all cases: cell-based or functional assay
[1] = molecular target: HIV-1 Env pseudovirus 235-47 (HIV-1)
[2] = molecular target: HIV-1 Env pseudovirus 3103.v3.c10 (HIV-1)
[3] = molecular target: HIV-1 Env pseudovirus A07412M1.vrc12 (HIV-1)
[4] = molecular target: HIV-1 Env pseudovirus BJOX009000.02.4 (HIV-1)
[5] = molecular target: HIV-1 Env pseudovirus BJOX028000.10.3 (HIV-1)
[6] = molecular target: HIV-1 Env pseudovirus C2101.c01 (HIV-1)
[7] = molecular target: HIV-1 Env pseudovirus CNE8 (HIV-1)
[8] = molecular target: HIV-1 Env of pseudovirus 1006_11_C3_1601 (clade B (T/F)) (HIV-1)
[9] = molecular target: HIV-1 Env of pseudovirus 1054_07_TC4_1499 (clade B (T/F)) (HIV-1)
[10] = molecular target: HIV-1 Env of pseudovirus 246F C1G (clade C (T/F)) (HIV-1)
[11] = molecular target: HIV-1 Env of pseudovirus 6244_13_B5_4576 (clade B (T/F)) (HIV-1)
[12] = molecular target: HIV-1 Env of pseudovirus BF1266.431a (clade C (T/F)) (HIV-1)
[13] = molecular target: HIV-1 Env of pseudovirus CAAN5342.A2 (clade B) (HIV-1)
[14] = molecular target: HIV-1 Env of pseudovirus CNE21 (clade BC) (HIV-1)
[15] = molecular target: HIV-1 Env of pseudovirus CNE53 (clade BC) (HIV-1)
[16] = molecular target: HIV-1 Env of pseudovirus CNE58 (clade BC) (HIV-1)
[17] = molecular target: HIV-1 Env of pseudovirus Ce703010054_2A2 (clade C (T/F)) (HIV-1)
[18] = molecular target: HIV-1 Env of pseudovirus Du422.1 (clade C) (HIV-1)
[19] = molecular target: HIV-1 Env of pseudovirus HIV-001428-2.42 (clade C) (HIV-1)
[20] = molecular target: HIV-1 Env of pseudovirus MS208.A1 (clade A) (HIV-1)
[21] = molecular target: HIV-1 Env of pseudovirus ZM135M.PL10a (clade C) (HIV-1)
[22] = molecular target: HIV-1 Env of pseudovirus ZM214M.PL15 (clade C) (HIV-1)
[23] = molecular target: HIV-1 Env of pseudovirus ZM233M.PB6 (clade C) (HIV-1)
[24] = molecular target: HIV-1 Env of pseudovirus ZM247v1(Rev-) (clade C (T/F)) (HIV-1)
[25] = molecular target: HIV-1 Env of pseudovirus ZM53M.PB12 (clade C) (HIV-1)
[26] = molecular target: HIV-1 Env of pseudovirus 235-47 (clade CRF02_AG) (HIV-1)
[27] = molecular target: HIV-1 Env of pseudovirus BJOX025000.01.1 (clade CRF01_AE (T/F)) (HIV-1)
[28] = molecular target: HIV-1 Env of pseudovirus C4118.c09 (clade CRF01_AE) (HIV-1)
[29] = molecular target: HIV-1 Env of pseudovirus R1166.c01 (clade CRF01_AE) (HIV-1)
[30] = molecular target: HIV-1 Env of pseudovirus R2184.c04 (clade CRF01_AE) (HIV-1)
[31] = molecular target: HIV-1 Env of pseudovirus T255-34 (clade CRF02_AG) (HIV-1)
[32] = molecular target: HIV-1 Env of pseudovirus T278-50 (clade CRF02_AG) (HIV-1)

For N49P9.1 (antibody), the IC50 [1] was 0.045 µg/mL, the IC80 [1] was 0.352 µg/mL and the MPI [1] was 98. It also gave an IC50 [2] greater than 50 µg/mL, an IC80 [2] greater than 50 µg/mL and an MPI [2] of 45. It also gave an IC50 [3] of 0.189 µg/mL, an IC80 [3] of 0.947 µg/mL and an MPI [3] of 100. The IC50 [4] was 0.965 µg/mL, the IC80 [4] was 3.93 µg/mL and the MPI [4] was 100. For the same substance, the IC50 [5] was 0.04 µg/mL, the IC80 [5] was 0.2 µg/mL and the MPI [5] was 100. The IC50 [6] was 0.085 µg/mL, the IC80 [6] was 0.227 µg/mL and the MPI [6] was 100. The IC50 [7] was 0.228 µg/mL, the IC80 [7] was 0.921 µg/mL and the MPI [7] was 100.
Work on N49P11 (antibody) yielded an IC50 [8] of 0.125 µg/mL, an IC80 [8] of 0.487 µg/mL and an MPI [8] of 100. It also gave an IC50 [9] of 2.92 µg/mL, an IC80 [9] of 13.1 µg/mL and an MPI [9] of 100. For the same substance, the IC50 [10] was 8.48 µg/mL, the IC80 [10] was 20.9 µg/mL and the MPI [10] was 100. For the same substance, the IC50 [11] was 1.12 µg/mL, the IC80 [11] was 5.45 µg/mL and the MPI [11] was 100. The IC50 [12] was 0.998 µg/mL, the IC80 [12] was 7.13 µg/mL and the MPI [12] was 100. The IC50 [13] was 9.03 µg/mL, the IC80 [13] was 20.8 µg/mL and the MPI [13] was 100. The IC50 [14] was 7.4 µg/mL, the IC80 [14] was 21.9 µg/mL and the MPI [14] was 100. The IC50 [15] was 0.43 µg/mL, the IC80 [15] was 2.88 µg/mL and the MPI [15] was 100. It also gave an IC50 [16] of 0.038 µg/mL, an IC80 [16] of 0.135 µg/mL and an MPI [16] of 100. The IC50 [17] was 1.42 µg/mL, the IC80 [17] was 7.51 µg/mL and the MPI [17] was 100. For the same substance, the IC50 [18] was 8.81 µg/mL, the IC80 [18] was 21.2 µg/mL and the MPI [18] was 100. It also gave an IC50 [19] of 0.221 µg/mL, an IC80 [19] of 1.64 µg/mL and an MPI [19] of 100. For the same substance, the IC50 [20] was 0.259 µg/mL, the IC80 [20] was 1.94 µg/mL and the MPI [20] was 100. It also gave an IC50 [21] of 3.97 µg/mL, an IC80 [21] of 16.6 µg/mL and an MPI [21] of 100. For the same substance, the IC50 [22] was 1.35 µg/mL, the IC80 [22] was 8.98 µg/mL and the MPI [22] was 100. It also gave an IC50 [23] of 5.92 µg/mL, an IC80 [23] of 18.5 µg/mL and an MPI [23] of 100. For the same substance, the IC50 [24] was 7.48 µg/mL, the IC80 [24] was 21.5 µg/mL and the MPI [24] was 100. It also gave an IC50 [25] of 1.05 µg/mL, an IC80 [25] of 6.53 µg/mL and an MPI [25] of 100.
Work on N49P18.1 (antibody) yielded an IC50 [8] of 2.8 µg/mL, an IC80 [8] of 9.66 µg/mL and an MPI [8] of 99. It also gave an IC50 [9] greater than 50 µg/mL, an IC80 [9] greater than 50 µg/mL and an MPI [9] of 0. It also gave an IC50 [10] of 3.4 µg/mL, an IC80 [10] of 20.2 µg/mL and an MPI [10] of 97. It also gave an IC50 [11] of 33.4 µg/mL, an IC80 [11] greater than 50 µg/mL and an MPI [11] of 61. It also gave an IC50 [12] of 3.48 µg/mL, an IC80 [12] of 20.8 µg/mL and an MPI [12] of 93. The IC50 [13] was 16.1 µg/mL, the IC80 [13] was 49.1 µg/mL and the MPI [13] was 83. For the same substance, the IC50 [14] was 7.93 µg/mL, the IC80 [14] was 29.2 µg/mL and the MPI [14] was 95. It also gave an IC50 [15] of 4.08 µg/mL, an IC80 [15] of 21.8 µg/mL and an MPI [15] of 97. It also gave an IC50 [16] of 1.92 µg/mL, an IC80 [16] of 5.26 µg/mL and an MPI [16] of 100. For the same substance, the IC50 [17] was 4.15 µg/mL, the IC80 [17] was 11.6 µg/mL and the MPI [17] was 98. The IC50 [18] was 21.5 µg/mL, the IC80 [18] was greater than 50 µg/mL and the MPI [18] was 75. For the same substance, the IC50 [19] was 1.13 µg/mL, the IC80 [19] was 8.31 µg/mL and the MPI [19] was 100. It also gave an IC50 [20] of 8.31 µg/mL, an IC80 [20] of 33.3 µg/mL and an MPI [20] of 88. For the same substance, the IC50 [21] was greater than 50 µg/mL, the IC80 [21] was greater than 50 µg/mL and the MPI [21] was 46. The IC50 [22] was greater than 50 µg/mL, the IC80 [22] was greater than 50 µg/mL and the MPI [22] was 20. It also gave an IC50 [23] of 38.4 µg/mL, an IC80 [23] greater than 50 µg/mL and an MPI [23] of 57. The IC50 [24] was 10.9 µg/mL, the IC80 [24] was greater than 50 µg/mL and the MPI [24] was 79. For the same substance, the IC50 [25] was 1.3 µg/mL, the IC80 [25] was 4.51 µg/mL and the MPI [25] was 99.
N49P19 (antibody) showed an IC50 [1] of 0.44 µg/mL, an IC80 [1] of 3.23 µg/mL and an MPI [1] of 89. For the same substance, the IC50 [2] was greater than 50 µg/mL, the IC80 [2] was greater than 50 µg/mL and the MPI [2] was 0. It also gave an IC50 [3] of 3.89 µg/mL, an IC80 [3] of 48.8 µg/mL and an MPI [3] of 80. For the same substance, the IC50 [4] was 3.66 µg/mL, the IC80 [4] was 25.6 µg/mL and the MPI [4] was 87. For the same substance, the IC50 [5] was 7 µg/mL, the IC80 [5] was greater than 50 µg/mL and the MPI [5] was 80. The IC50 [6] was 0.978 µg/mL, the IC80 [6] was 4.19 µg/mL and the MPI [6] was 100. For the same substance, the IC50 [7] was 0.772 µg/mL, the IC80 [7] was 4.84 µg/mL and the MPI [7] was 97.
In the case of PG9 (antibody), the IC50, titer in TZM.bl cells [26] is reported as 0.233 µg/mL, the IC80, titer in TZM.bl cells [26] is reported as 1.2 µg/mL and the IC50, titer in TZM.bl cells [27] is reported as 0.144 µg/mL. The IC80, titer in TZM.bl cells [27] was 0.335 µg/mL, the IC50, titer in TZM.bl cells [28] was 0.068 µg/mL and the IC80, titer in TZM.bl cells [28] was 0.2 µg/mL. The IC50, titer in TZM.bl cells [29] was 0.736 µg/mL, the IC80, titer in TZM.bl cells [29] was 2.88 µg/mL and the IC50, titer in TZM.bl cells [30] was 0.255 µg/mL. The IC80, titer in TZM.bl cells [30] was 1.24 µg/mL, the IC50, titer in TZM.bl cells [31] was 0.023 µg/mL and the IC80, titer in TZM.bl cells [31] was 0.134 µg/mL. The IC50, titer in TZM.bl cells [32] was 0.393 µg/mL and the IC80, titer in TZM.bl cells [32] was 3.19 µg/mL.
